# Test results taken from patent publication US20220195008A1 (published 2022).
# T1: MAGE-A12 peptide on HLA-C*07:01 (human)
# T1 peptide: VRIGHLYIL
# T2: MAGE-A12 peptide on HLA-C*07:02 (human)
# T2 peptide: VRIGHLYIL
# Tests used:
# [1] = target: T1, MAGE-A12 peptide on HLA-C*07:01; test: cytokine release
# [2] = target: T2, MAGE-A12 peptide on HLA-C*07:02; test: cytokine release
# [3] = target: T1, MAGE-A12 peptide on HLA-C*07:01; test: killing
binding result [1],binding result [2],Binder,binding result [3]
no recognition,recognises,"anti-MAGE-A12 TCR FM8 (TCR, V domains shown) Valpha: AQTVTQSQPEMSVQEAETVTLSCTYDTSESDYYLFWYKQPPSRQMILVIRQEAYKQQNATENRFSVNFQKAAKSFSLKISDSQLGDAAMYFCAYRSAQGGSEKLVFGKGTKLTVNP Vbeta: ETGVTQTPRHLVMGMTNKKSLKCEQHLGHNAMYWYKQSAKKPLELMFVYSLEERVENNSVPSRFSPECPNSSHLFLHLHTLQPEDSALYLCASSQTTYYNEQFFGPGTRLTVL",
,,"anti-MAGE-A12 TCR 502 (TCR, V domains shown) Valpha: GENVEQHPSTLSVQEGDSAVIKCTYSDSASNYFPWYKQELGKRPQLIIDIRSNVGEKKDQRIAVTLNKTAKHFSLHITETQPEDSAVYFCAASGATDKLIFGTGTRLQVFP Vbeta: EADIYQTPRYLVIGTGKKITLECSQTMGHDKMYWYQQDPGMELHLIHYSYGVNSTEKGDLSSESTVSRIRTEHFPLTLESARPSHTSQYLCASSGGHEQYFGPGTRLTVT",recognises
